Data as given in the supplement of paper PMC11811203.

B1: THAP1; numbered along this chain (parent)
chain: MVQSCSAYGCKNRYDKDKPVSFHKFPLTRPSLCKEWEAAVRRKNFKPTKYSSICSEHFTPDCFKRECNNKLLKENAVPTIFLCTEPHDKKEDLLEPQEQLPPPPLPPPVSQVDAAIGLLMPPLQTPVNLSVFCDHNYTVEDTMHQRKRIHQLEQQVEKLRKKLKTAQQRCRRQERQLEKLKEVVHFQKEKDDVSERGYVILPNDYFEIVEVPA

Variants of: B1
Test: THAP1 transcriptional activity (GFP+/GFP- enrichment relative to wild-type constructs) (ratio to WT); higher = more THAP1 activity (PSMB5 reporter activation)
Details: with PSMB5 promoter-GFP reporter
Protocol: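 Deep mutational scan of human THAP1. Site-saturation single amino acid variant library (residues 2-213) was expressed by lentivirus at MOI ~0.3 in THAP1-knockout HEK-293T cells carrying an endogenous PSMB5 promoter-GFP knock-in reporter. Five days post-transduction, BFP+ cells were FACS-sorted into GFP dim and GFP bright populations and variants were counted by Illumina sequencing. Activity is the GFP-bright/GFP-dim read fold change, mean of 2 replicates, divided by the mean fold change of wild-type (synonymous) constructs in the same screen pool; WT = 1.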

THAP1 transcriptional activity of substitutions, site by site:
K49: H 0.0815, N 0.177, D 0.12, L 0.234, F 0.122, P 0.264, M 0.232, A 0.22, Q 0.317, T 0.138, E 0.105, I 0.398, W 0.1, C 0.185, S 0.261, G 0.123, Y 0.0951, R 0.427, V 0.257
H57: G 0.0681, Q 0.0983, D 0.0578, M 0.138, I 0.102, W 0.0852, N 0.0635, E 0.0678, K 0.126, P 0.0956, A 0.116, L 0.107, S 0.121, T 0.109, R 0.183, F 0.126, V 0.105, C 0.196, Y 0.115
Y50: S 0.268, M 0.091, R 0.09, I 0.112, E 0.108, D 0.129, N 0.389, H 0.759, G 0.1, T 0.13, Q 0.0845, L 0.135, F 0.616, A 0.294, P 0.103, V 0.12, K 0.0751, C 0.275
F63: M 0.089, W 0.473, V 0.082, T 0.128, D 0.063, S 0.0787, N 0.14, H 0.0911, R 0.084, I 0.134, A 0.117, E 0.0925, C 0.139, P 0.103, G 0.1, Q 0.0896, L 0.0863, Y 0.623
F58: E 0.149, K 0.0827, M 0.105, T 0.0696, C 0.0689, L 0.121, R 0.046, I 0.0956, D 0.0836, N 0.0722, Y 0.153, H 0.131, A 0.0948, V 0.115, Q 0.0792, S 0.0937, P 0.0346, W 0.143, G 0.064
P60: N 0.844, C 0.174, M 0.374, F 0.333, E 0.745, D 0.532, S 0.985, K 0.834, T 0.758, Y 0.259, H 0.509, R 0.718, G 0.443, A 0.758, L 0.35, Q 1.17, W 0.256
K64: I 0.159, F 0.102, C 0.0975, N 0.237, V 0.215, A 0.0797, L 0.145, H 0.0785, M 0.112, T 0.115, E 0.188, Y 0.0778, W 0.0652, G 0.219, P 0.104, Q 0.25, R 1.06, D 0.151, S 0.123
R65: T 0.797, Y 0.369, V 0.559, I 0.626, L 1.04, E 0.629, N 0.596, C 0.173, S 0.735, A 0.63, G 0.424, H 0.327, Q 0.982, W 0.212, M 0.623, D 0.388, F 0.208, P 0.671
D61: S 0.312, P 0.104, G 0.219, C 0.198, V 0.101, F 0.173, Y 0.127, K 0.217, M 0.207, A 0.309, Q 0.282, H 0.228, L 0.209, T 0.368, R 0.22, I 0.133, N 0.472, W 0.145
C62: Q 0.74, H 0.173, P 0.0987, T 0.195, M 0.591, S 1.72, R 0.181, N 0.487, A 0.523, V 0.0798, K 0.21, W 0.113, E 0.143, I 0.09, G 0.113, Y 0.141, F 0.151, D 1.01
S55: V 0.101, E 0.127, C 0.0655, W 0.0398, F 0.084, N 0.147, P 0.0679, H 0.0394, T 0.128, M 0.0662, Q 0.168, G 0.185, I 0.114, K 0.0934, R 0.113, Y 0.109, D 0.077, L 0.106, A 0.112
C54: N 0.106, F 0.105, H 0.0812, K 0.097, M 0.0985, G 0.0692, E 0.0874, W 0.107, S 0.154, Y 0.124, T 0.0761, I 0.0624, L 0.0556, P 0.234, Q 0.0652, D 0.178, R 0.0929, A 0.0793, V 0.0511
T48: I 0.123, K 0.158, H 0.102, Y 0.0779, R 0.132, M 0.138, W 0.0814, P 0.174, G 0.419, L 0.115, V 0.12, S 0.729, N 0.545, Q 0.0994
E56: Y 0.194, G 0.114, N 0.344, A 0.98, R 0.389, T 0.336, W 0.249, K 0.472, P 0.0876, D 1.26, Q 0.873, F 0.363, S 0.473, V 0.83, C 0.263, H 0.253, M 0.509, L 0.526, I 0.6
E66: C 1.21, A 1.36, I 0.457, F 0.996, K 0.629, M 0.558, L 0.436
S51: R 0.0935, F 0.102, D 0.0561, N 0.16, P 0.118, C 0.128, T 0.421, Y 0.0754, I 0.124, H 0.145, V 0.102, E 0.185, Q 0.0846, K 0.121, M 0.26, L 0.111, W 0.122, A 0.32, G 0.0575
I53: V 0.447, K 0.0685, P 0.0932, Q 0.0507, Y 0.141, D 0.133, H 0.1, T 0.111, C 0.164, S 0.112, R 0.0647, F 0.0519, G 0.0813, M 0.194, N 0.0864, W 0.052, A 0.136, E 0.101
T59: C 0.138, A 0.736, W 0.0856, R 0.426, P 0.248, L 0.372, Y 0.0936, Q 0.605, K 0.423, H 0.511, I 0.147, N 0.386, F 0.186, V 0.269, D 0.292, G 0.413, E 1.07, M 0.544
S52: A 1.55, W 0.089, E 0.0459, D 0.109, C 1.57, G 0.141, Q 0.261, Y 0.46, T 1.41, P 0.096, K 0.641, N 0.469, I 0.379, F 0.325, V 1.14, M 0.633, H 0.251, L 0.606
